# Patent US12606638B2, “Dosing regimens for use with PCSK9 inhibitors” (Sanofi Biotechnology, priority 2013, dated 2026)
# “And” between values parts separate entries of the source, which are not always exact repeats. Equal entries are not always repeated. Where two headings read alike, the source gives them in different places.
# Assays:
# healthy subjects [1] = test: Phase 1 study in healthy subjects: pharmacodynamic profile (serum lipid parameters) of alirocumab alone or on top of ezetimibe or fenofibrate; type: in vivo, human; conditions: for Percent change in LDL-C during the run-in period (Day −29 to Day −1): ezetimibe 10 mg/day or fenofibrate 160 mg/day alone, before alirocumab, value on Day −1, mean (SEM); for Mean percent change in LDL-C from Day −1 baseline to Day 71: additional baseline Day −1 (start of alirocumab injection); for Mean percent change in LDL-C from Day −29 baseline to Day 71: main baseline Day −29 (start of placebo/EZE/FENO run-in), Day 71 = 14 days after 3rd alirocumab dose, 150 mg SC Q4W, N=24
# Procedure: (§1) The primary objective of the study was to assess the pharmacodynamic profile of alirocumab administered either alone or on top of ezetimibe or fenofibrate, based on low density lipoprotein cholesterol (LDL-C).
# The study evaluated 72 healthy subjects.
# Alirocumab was administered subcutaneously in the abdomen.
# Ezetimibe was formulated as a 10 mg over-encasulated tablet (and matching placebo ezetimibe capsule). Ezetimibe was administered orally.
# Fenofibrate was formulated at a 160 mg coated tablet. Fenofibrate was administered orally during a meal.
# The duration of treatment was as follows.
# The pharmacodynamic criteria were as follows. The primary endpoint was percent change in calculated serum LDL-C from baseline (D-29). The secondary endpoints were absolute change from baseline in calculated LDL-C, total cholesterol (TC), high density lipoprotein cholesterol (HDL-C), non-HDL-C, triglycerides (TG), apolipoprotein B (ApoB), apolipoprotein A1 (ApoA1), and lipoprotein a (Lp[a]) analyzed in percent and absolute change from baseline.
# The blood sampling for lipid parameters (ie, LDL-C, TC, HDL-C, non-HDL-C, TG, ApoB, ApoA1, Lp[a]) were performed in the morning, in the fasted condition (at least 10-hours fasted and refrained from smoking), before any drug intake.
# Blood samples were collected at screening; Day −1 of the run-in phase; and Days 8, 15, 22, 29±1, 57±1, 64±1, 71±1, 78±1, 85±1, 99±2, and 120±3 of the treatment phase.
# free PCSK9 = test: Phase 1 study: circulating levels of free PCSK9; type: in vivo, human; conditions: for Free PCSK9 level at end of run-in period: prior to alirocumab treatment, from 152 (FENO) and 151 (EZE) at start of run-in
# Source text: as §1
# [2] = test system: patients with genotype-confirmed hoFH; conditions: ezetimibe 10 mg/day added to maximal dose of statins; cited from earlier work
# [3] = in vivo
# [4] = in vivo; remark: listed apart in the source
# Procedure: Samples for the determination of anti-drug antibody (ADA) levels in serum were collected at Day −28 of the run-in phase; Days 29, 57, 85, and 120 of the treatment phase; and the EOS visit.
# In neat serum samples, the validated lower limit of detection was approximately 1.5 ng/mL.
# healthy subjects [5] = test: Phase 1 study: safety (adverse events, laboratory, vital signs, ECG); conditions: for Patients with any TEAEs, %: N = 24 per group
# [6] = additional baseline Day −1, 14 days after 3rd alirocumab dose
# [7] = listed as Alirocumab 150 mg Q4W + placebo
# [8] = main baseline Day −29, 14 days after 3rd alirocumab dose
# [9] = median, additional baseline Day −1, 14 days after 3rd alirocumab dose
# [10] = median, main baseline Day −29, 14 days after 3rd alirocumab dose
compound,measurement,setting,value
O=C1[C@H](CC[C@H](O)c2ccc(F)cc2)[C@@H](c2ccc(O)cc2)N1c1ccc(F)cc1 [ezetimibe],Percent change in LDL-C during the run-in period (Day −29 to Day −1),healthy subjects [1],−19.8 (2.1) %
same,Free PCSK9 level at end of run-in period,free PCSK9,142 ng/mL
same,Total reduction of LDL-C levels,[2],27%
"CC(C)OC(=O)C(C)(C)Oc1ccc(C(=O)c2ccc(Cl)cc2)cc1 [fenofibrate, reference compound]",Percent change in LDL-C during the run-in period (Day −29 to Day −1),healthy subjects [1],−25.9 (3.2) %
same,Free PCSK9 level at end of run-in period,free PCSK9,217 ng/mL
alirocumab,Percent change in LDL-C from Day −1 baseline to Day 85,healthy subjects [1]; 28 days after the 3rd administration of alirocumab,−47.03%
same,Mean percent change in LDL-C from Day −1 baseline to Day 71,"healthy subjects [1]; 14 days after 3rd alirocumab dose, listed as Alirocumab 150 mg Q4W + placebo",−47.4%
same,Mean percent change in LDL-C from Day −1 baseline to Day 71,"healthy subjects [1]; 14 days after 3rd alirocumab dose, listed as alirocumab alone",−47.39% and −47.4 (3.2) %
same,Mean percent change in Apolipoprotein B from Day −1 baseline to Day 71,healthy subjects [1]; [6],−38.4%
same,Mean percent change in HDL-C from Day −1 baseline to Day 71,healthy subjects [1]; [6],3.6%
same,Mean percent change in Non-HDL-C from Day −1 baseline to Day 71,healthy subjects [1]; [6],−43.0%
same,Mean percent change in Total cholesterol from Day −1 baseline to Day 71,healthy subjects [1]; [6],−31.5%
same,"LDL-C reductions, sustained over the 28-day dosing interval","healthy subjects [1]; alirocumab 150 mg Q4W monotherapy, regardless of baseline",~48%
same,Mean percent change in LDL-C from Day −29 baseline to Day 71,healthy subjects [1]; [7],−48.2%
same,Mean percent change in LDL-C from Day −29 baseline to Day 71,healthy subjects [1]; listed as alirocumab alone,−47.59% and −48.2 (2.3) %
same,Mean percent change in Apolipoprotein B from Day −29 baseline to Day 71,healthy subjects [1]; [8],−39.1%
same,Mean percent change in HDL-C from Day −29 baseline to Day 71,healthy subjects [1]; [8],3.3%
same,Mean percent change in Non-HDL-C from Day −29 baseline to Day 71,healthy subjects [1]; [8],−43.0%
same,Mean percent change in Total cholesterol from Day −29 baseline to Day 71,healthy subjects [1]; [8],−31.6%
same,Median percent change in Lipoprotein (a) from Day −1 baseline to Day 71,healthy subjects [1]; [9],−11.7%
same,Median percent change in Triglycerides from Day −1 baseline to Day 71,healthy subjects [1]; [9],−3.9%
same,Median percent change in Lipoprotein (a) from Day −29 baseline to Day 71,healthy subjects [1]; [10],−20.3%
same,Median percent change in Triglycerides from Day −29 baseline to Day 71,healthy subjects [1]; [10],5.7%
same,Effect on free PCSK9 after alirocumab injection,free PCSK9; after the 1st and 3rd alirocumab injections,complete suppression
same,"AUClast, Geometric Mean",[3]; human,(306) [38.4] mg · day/l
same,"AUClast, Mean ± SD",[3]; human,326 ± 125 mg·days/L
same,"CL/F, Mean ± SD",[3]; human,0.312 ± 0.124 L/day
same,"Cmax, Mean ± SD",[3]; human,24300 ± 8610 ng/mL
same,"MRT, Geometric Mean",[3]; human,(18.2) [20.7] day
same,"MRT, Mean ± SD",[3]; human,18.5 ± 3.84 days
same,"t1/2z, Geometric Mean",[3]; human,(8.37) [35.7] day
same,"t1/2z, Mean ± SD",[3]; human,8.76 ± 3.12 days
same,"Cmax, Mean ± SD","[3]; human, sc, 150 mg",20400 ± 13500 ng/mL
same,"AUC, Geometric Mean",[3],(318) [58.9]^b mg · day/l
same,"AUC, Mean ± SD",[3],357 ± 210 mg·days/L
same,"AUCExt (percentage of extrapolation of AUC), Geometric Mean",[3],(22) [44.7] %
same,"AUCExt (percentage of extrapolation of AUC), Mean ± SD",[3],25 ± 11%
same,"tlast, Median",[3],69.00 days
same,"Subjects tested ADA positive, %",[4],16.7%
same,"Subjects tested ADA positive, number",[4],Four out of 24
same,"Abdominal pain (TEAE), %",healthy subjects [5]; N = 24,(8.3) %
same,"Gastroenteritis viral (TEAE), %",healthy subjects [5]; N = 24,(0) %
same,"Headache (TEAE), %",healthy subjects [5]; N = 24,(12.5) %
same,"Influenza (TEAE), %",healthy subjects [5]; N = 24,(8.3) %
same,"Influenza-like illness (TEAE), %",healthy subjects [5]; N = 24,(4.2) %
same,"Nasopharyngitis (TEAE), %",healthy subjects [5]; N = 24,(12.5) %
same,"Patients with any TEAEs, %",healthy subjects [5]; [7],(50.0) %
same,"Patients with any TEAEs, %",healthy subjects [5]; listed as alirocumab alone,50.0%
same,Tolerability,"healthy subjects [5]; alone or on top of ezetimibe or fenofibrate, 150 mg Q4W for 3 administrations, healthy subjects",well tolerated
